For the assay, the target named is IL-2Rαβ (UniProt P01589). The experiment in a line: in vitro binding affinity against IL-2 as a standard (Example 2: SPR, Biacore T-100, receptor-Fc captured, EC50 of RU against concentration). For orientation: SPR reads the build-up and loss of mass on a sensor chip optically.
Sequence of UniProt P01589 (P01589 22-240 limits assumed): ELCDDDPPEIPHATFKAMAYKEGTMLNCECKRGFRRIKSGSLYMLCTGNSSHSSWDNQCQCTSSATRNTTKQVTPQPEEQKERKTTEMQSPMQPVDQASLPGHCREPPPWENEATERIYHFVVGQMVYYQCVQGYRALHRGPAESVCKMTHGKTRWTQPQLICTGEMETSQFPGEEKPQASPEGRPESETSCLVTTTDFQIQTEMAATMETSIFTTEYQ

“RSLAIL-2 (multiPEGylated recombinant human IL-2 with the aldesleukin sequence; composition of primarily 4-mers, 5-mers and 6-mers of releasably attached mPEG2-C2-fmoc-20kD) (from UniProt P60568 22-153) (ligand)”: the fold decrease in affinity relative to IL-2 is 60 fold.

(Values after patent US20190275133A1.)
